Earlier results on two substances are cited in article PMC3957495.

Data set [1] concerns the target CRF (UniProt P06850).
The target of a further data set is Urocortin 1 (UniProt P55089).
In data set [2] the target is CRF (UniProt P06850). This is another data set of the same source.
Sequence of CRF (P06850 154-194): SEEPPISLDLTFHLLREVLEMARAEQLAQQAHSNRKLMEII

Sequence of sCRF2a receptor (Q60748 20-411): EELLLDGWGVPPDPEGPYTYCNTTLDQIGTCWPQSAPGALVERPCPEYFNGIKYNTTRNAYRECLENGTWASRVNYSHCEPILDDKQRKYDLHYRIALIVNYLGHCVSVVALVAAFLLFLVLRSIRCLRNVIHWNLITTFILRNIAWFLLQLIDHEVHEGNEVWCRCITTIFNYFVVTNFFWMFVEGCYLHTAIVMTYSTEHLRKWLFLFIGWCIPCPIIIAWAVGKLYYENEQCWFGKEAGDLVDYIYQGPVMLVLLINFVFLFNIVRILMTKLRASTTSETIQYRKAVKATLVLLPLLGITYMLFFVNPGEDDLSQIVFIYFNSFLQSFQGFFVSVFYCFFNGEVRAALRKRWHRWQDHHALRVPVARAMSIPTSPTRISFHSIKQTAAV
Sequence of CRF2a-tr (P47866 20-411): as the sequence (Q60748 20-411) above, with V10E, T19S, V100I, A146T, I168V, I221V, A241P, V253I, M254I, A349S counted along it
Sequence of Urocortin 1 (P55089 83-122): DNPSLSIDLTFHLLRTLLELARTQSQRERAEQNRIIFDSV

As to CRF2a-tr (from UniProt P47866), the Kd with CRF [1] was 12.7 nM.

Consider sCRF2a receptor (from UniProt Q60748), for which the Ki with Urocortin 1 is 6.6 nM; in the data set with CRF [2], 23 nM.
